In PMC10662749:

Conditions: glycan changed form

| Substance | other: neutralisation sensitivity, other: maximum % neutralisation | other: proteolytic processing | other: pseudovirus infectivity | other: pseudovirus infectivity, fold_change |
| --- | --- | --- | --- | --- |
| SARS-CoV-2 spike, D614G: 50 μM kifunensine | no change, 55 ± 9 vs 64 ± 4 | no change | decreases |  |
| SARS-CoV-2 spike, BA.1 (Omicron): 50 μM kifunensine |  | no change |  | abolishes |
| SARS-CoV-2 spike, BA.1 (Omicron): GnTI- cells |  | no change |  | abolishes |
| SARS-CoV-2 spike, B.1.617.2 (Delta): 20 μM swainsonine |  |  | no change |  |

Same assay, conditions: glycan lost

| Substance | other: neutralisation sensitivity | other: pseudovirus infectivity, fold_change | other: neutralisation sensitivity, other: maximum % neutralisation | other: pseudovirus particle yield (p24) | other: proteolytic processing | other: neutralisation sensitivity, fold_change |
| --- | --- | --- | --- | --- | --- | --- |
| SARS-CoV-2 spike, D614G: N343Q | no change | decreases |  |  |  |  |
| SARS-CoV-2 spike, D614G: N657Q | no change |  | no change, 58 ± 4 vs 64 ± 4 |  |  |  |
| SARS-CoV-2 spike, BA.1 (Omicron): N331Q | no change |  |  |  |  |  |
| SARS-CoV-2 spike, D614G: N616Q | no change |  | no change, 64 ± 7 vs 64 ± 4 |  |  |  |
| SARS-CoV-2 spike, BA.1 (Omicron): N234Q |  |  | no change, 87 ± 4 vs 79 ± 7 |  |  |  |
| SARS-CoV-2 spike, BA.1 (Omicron): N1074Q | no change |  | no change, 86 ± 13 vs 79 ± 7 | decreases |  |  |
| SARS-CoV-2 spike, BA.1 (Omicron): N717Q |  |  |  |  | decreases |  |
| SARS-CoV-2 spike, BA.4 (Omicron): N801Q |  | abolishes |  |  |  |  |
| SARS-CoV-2 spike, D614G: N234Q |  |  |  |  |  | decreases |
| SARS-CoV-2 spike, BA.1 (Omicron): N1173Q | no change |  | no change, 80 ± 9 vs 79 ± 7 |  |  |  |
| SARS-CoV-2 spike, BA.1 (Omicron): N122Q | no change |  | decreases, 36 ± 19 vs 79 ± 7 |  |  |  |
| SARS-CoV-2 spike, D614G: N282Q | no change |  |  |  |  | decreases |
| SARS-CoV-2 spike, BA.1 (Omicron): N801A |  | abolishes |  |  |  |  |
| SARS-CoV-2 spike, D614G: N74Q | no change |  | no change, 62 ± 3 vs 64 ± 4 |  |  |  |
| SARS-CoV-2 spike, BQ.1.1 (Omicron): N801Q |  | abolishes |  |  |  |  |
| SARS-CoV-2 spike, BA.1 (Omicron): N149Q | no change |  |  |  |  |  |
